Experimental data as given in the Immune Epitope Database (IEDB).
One block for each sequence: values may come before it.

Assays:
HLA-A*68:23 = experiment: IEDB peptide-MHC binding, purified MHC/competitive/fluorescence; filed as Kd, often an IC50 or EC50 that approximates it; ≥ and ≤ were set here for values at or beyond the usual limits of such assays; details: source organism: Homo sapiens
HLA-B*15:42 = experiment: as above; details: source organism: Homo sapiens
HLA-B*45:06 = experiment: as above; details: source organism: Homo sapiens
HLA-B*83:01 = experiment: as above; details: source organism: Homo sapiens
HLA-C*06:02 = experiment: IEDB peptide-MHC binding, purified MHC/direct/fluorescence; filed as Kd, often an IC50 or EC50 that approximates it; ≥ and ≤ were set here for values at or beyond the usual limits of such assays; details: source organism: Listeria monocytogenes serotype 1/2a str. F6854
HLA-C*07:02 = experiment: as above; details: source organism: Listeria monocytogenes serotype 1/2a str. F6854
HLA-C*15:02 = experiment: as above; details: source organism: Listeria monocytogenes serotype 1/2a str. F6854
HLA-B*46:01 = experiment: IEDB peptide-MHC binding, purified MHC/competitive/fluorescence; filed as Kd, often an IC50 or EC50 that approximates it; ≥ and ≤ were set here for values at or beyond the usual limits of such assays; details: source organism: Listeria monocytogenes serotype 1/2a str. F6854
HLA-A*01:01 = experiment: IEDB peptide-MHC binding, purified MHC/direct/fluorescence; filed as Kd, often an IC50 or EC50 that approximates it; ≥ and ≤ were set here for values at or beyond the usual limits of such assays
HLA-A*02:01 = experiment: as above
HLA-A*11:01 [1] = experiment: as above; details: source organism: Camelpox virus M-96
HLA-A*24:03 = experiment: as above; details: source organism: Camelpox virus M-96
HLA-A*68:02 = experiment: as above
HLA-A*69:01 = experiment: as above
HLA-B*07:02 = experiment: as above
HLA-B*08:01 = experiment: as above
HLA-B*08:03 = experiment: as above; details: source organism: Variola virus
HLA-B*15:09 = experiment: as above; details: source organism: Variola virus
HLA-B*39:01 = experiment: as above; details: source organism: Variola virus
HLA-B*57:01 = experiment: as above
HLA-B*58:01 = experiment: as above
HLA-C*14:02 = experiment: as above; details: source organism: Vaccinia virus Copenhagen
HLA-A*02:03 = experiment: IEDB peptide-MHC binding, purified MHC/competitive/fluorescence; filed as Kd, often an IC50 or EC50 that approximates it; ≥ and ≤ were set here for values at or beyond the usual limits of such assays; details: source organism: Vaccinia virus Copenhagen
HLA-A*26:02 = experiment: as above; details: source organism: Vaccinia virus Copenhagen
HLA-A*31:01 [2] = experiment: as above; details: source organism: Vaccinia virus Copenhagen
HLA-B*15:01 [3] = experiment: as above; details: source organism: Vaccinia virus Copenhagen
HLA-B*15:17 = experiment: as above
HLA-B*18:01 = experiment: as above
HLA-A*03:01 = experiment: IEDB peptide-MHC binding, purified MHC/direct/fluorescence; filed as Kd, often an IC50 or EC50 that approximates it; ≥ and ≤ were set here for values at or beyond the usual limits of such assays; details: source organism: Influenza A virus (A/chicken/Hubei/wk/1997(H5N1))
HLA-A*31:01 [4] = experiment: as above; details: source organism: Influenza A virus (A/chicken/Hubei/wk/1997(H5N1))
HLA-B*15:01 [5] = experiment: as above; details: source organism: Influenza A virus (A/chicken/Hubei/wk/1997(H5N1))
HLA-B*48:01 = experiment: as above; details: source organism: Influenza A virus (A/chicken/Hubei/wk/1997(H5N1))
HLA-B*73:01 = experiment: as above; details: source organism: Influenza A virus (A/chicken/Hubei/wk/1997(H5N1))
HLA-A*11:01 [6] = experiment: IEDB peptide-MHC binding, purified MHC/competitive/fluorescence; filed as Kd, often an IC50 or EC50 that approximates it; ≥ and ≤ were set here for values at or beyond the usual limits of such assays; details: source organism: Influenza A virus H3N2
HLA-A*30:01 = experiment: as above; details: source organism: Influenza A virus H3N2
[7] = source organism: Camelpox virus M-96
[8] = source organism: Vaccinia virus Copenhagen
[9] = source organism: Influenza A virus (A/chicken/Hubei/wk/1997(H5N1))
[10] = source organism: Influenza A virus H3N2

- Kd (HLA-A*68:23): 946 nM
- Kd (HLA-B*15:42): ≥ 5 µM
- Kd (HLA-B*45:06): ≥ 5 µM
- Kd (HLA-B*83:01): 5.27 µM
Sequence: KGPPAALTL

Sequence: KMIGNLLSF
- Kd (HLA-C*06:02): ≥ 20 µM
- Kd (HLA-C*07:02): 666 nM
- Kd (HLA-C*15:02): 2560 nM
- Kd (HLA-B*46:01): 1110 nM

Sequence: KYFDDVTAF
- Kd (HLA-A*01:01; [7]): ≥ 20 µM
- Kd (HLA-A*02:01; [7]): ≥ 20 µM
- Kd (HLA-A*11:01 [1]): ≥ 20 µM
- Kd (HLA-A*24:03): 5.5 nM
- Kd (HLA-A*68:02; [7]): ≥ 20 µM
- Kd (HLA-A*69:01; [7]): ≥ 20 µM
- Kd (HLA-B*07:02; [7]): ≥ 20 µM
- Kd (HLA-B*08:01; source organism: Variola virus): ≥ 20 µM
- Kd (HLA-B*08:03): ≥ 20 µM
- Kd (HLA-B*15:09): ≥ 20 µM
- Kd (HLA-B*39:01): ≥ 20 µM
- Kd (HLA-B*57:01; [7]): ≥ 20 µM
- Kd (HLA-B*58:01; [7]): ≥ 20 µM
- Kd (HLA-C*14:02): ≤ 1 nM
- Kd (HLA-A*02:03): 3.99 µM
- Kd (HLA-A*26:02): ≥ 20 µM
- Kd (HLA-A*31:01 [2]): 2950 nM
- Kd (HLA-B*15:01 [3]): 2070 nM
- Kd (HLA-B*15:17; [8]): 4330 nM
- Kd (HLA-B*18:01; [8]): 87.4 nM

Sequence: MKWMMAMKY
- Kd (HLA-A*01:01; [9]): ≥ 20 µM
- Kd (HLA-A*02:01; [9]): ≥ 20 µM
- Kd (HLA-A*03:01): ≥ 20 µM
- Kd (HLA-A*31:01 [4]): ≥ 20 µM
- Kd (HLA-A*68:02; [9]): ≥ 20 µM
- Kd (HLA-A*69:01; [9]): ≥ 20 µM
- Kd (HLA-B*07:02; [9]): ≥ 20 µM
- Kd (HLA-B*08:01; source organism: Influenza A virus(A/swine/Shandong/fNY/2003(H9N2))): ≥ 20 µM
- Kd (HLA-B*15:01 [5]): ≥ 20 µM
- Kd (HLA-B*48:01): ≥ 20 µM
- Kd (HLA-B*57:01; [9]): ≥ 20 µM
- Kd (HLA-B*58:01; [9]): ≥ 20 µM
- Kd (HLA-B*73:01): ≥ 20 µM
- Kd (HLA-A*11:01 [6]): ≥ 20 µM
- Kd (HLA-A*30:01): 1080 nM
- Kd (HLA-B*15:17; [10]): 912 nM
- Kd (HLA-B*18:01; [10]): 984 nM
